Laboratory results reported in patent US20250129140A1, “ANTI-HCMV ANTIBODIES AND ANTIGEN-BINDING FRAGMENTS THEREOF” (ICAHN SCHOOL OF MEDICINE AT MOUNT SINAI, priority 2021, published 2025).

Assays:
HCMV = assay: Virus neutralization, summary statements across cell types and strains; type: cell-based, Human cytomegalovirus; conditions: MRC5; TB40/E, AD169R, TR, Towne
Description: AD169R^BADrUL131, TB40E, TR, or Towne was pre-incubated with monoclonal antibodies (starting dilution of 100 μg/mL antibody) was diluted using 5 fold dilutions to achieve a final range of 50-0.016 μg/mL antibody after addition to 25 μL of media containing virus; final MOI 0.2) and incubated at 4° C. for 1 hr before the inoculum was added to the appropriate cell types (ARPE-19, HTR-svNeo, MRC5, or NHDF cells at 10,000 cells per well) for 2 hrs at 37° C., 5% CO2. Following infection, the inoculum was removed and replaced with 100 μL complete DMEM/F-12 media before an overnight incubation at 37° C., 5% CO2.
Cells were fixed using 4% paraformaldehyde (PFA) for 20 minutes at room temp. Cells were then permeabilized using 0.3% Triton X-100 (Thermo Fisher, #HFH10) in PBS and stained with an affinity-purified, polyclonal rabbit anti-IE1-1/2 (0.7 ng/ml) primary and an anti-rabbit Alexa Fluor 647 (1:1000) secondary. To quantify total cells per well, Hoechst (Molecular Probes, #H3570) was diluted 1:100,000 in PBS and incubated with cells for 20 minutes at room temp. Virus neutralization was quantified using a Celigo cytometer (Nexelcom Bioscience). Percent infection was calculated using ((#IE1-1+)/(#Hoechst+))*100 events per well and normalized to the percent infection when an irrelevant, non-neutralizing, or no antibody was used.
The student's unpaired, two tailed t tests were performed using the GraphPad Prism software (La Jolla, CA). An asterisk identifies statistical significance of P<0.05 or less.

[1] = test system: recombinant HCMV pentamer (strain VR1814) consisting of gH, gL, UL128, UL130 and UL131A; assay: Biolayer interferometry (Octet RED) KD determination; type: binding, Human cytomegalovirus; conditions: for kon: association 3 minutes; for kdis: dissociation 3 minutes in PBS
Description: Biolayer interferometry assays were performed using the Octet RED instrument (ForteBio, Inc.) to determine the association (kon) and dissociation (kdis) constants for each antibody. Purified monoclonal antibody was loaded onto the anti-mouse Fc IgG capture (AMC) biosensors using 5-fold dilutions (50-0.016 μg/mL in PBS) for 10 minutes. To determine the kon, the sensors were exposed to the recombinant HCMV pentamer (strain VR1814) consisting of gH, gL, UL128, UL130 and UL131A (Native Antigen, CMV-PENT-100) at a constant concentration of 100 μg/mL in PBS for 3 minutes. To determine the kdis, dissociation was measured over the course of 3 minutes while the sensors were in PBS buffer. KD values were calculated as a ratio of […].
To examine this further, 293 Expi cells were transfected with wildtype gH, wildtype gL, cotransfected with gH and gL (gH+gL), transfected with a single plasmid expressing both gH and gL (gH/gL) or co-transfected a variety of gH mutants and gL. Three days post transfection the cells were harvested and stained with unlabeled primary at 0.5 μg/mL using the antibodies indicated. Transfection efficiency was determined by measuring GFP expression on day 3 and binding was determined by percent Alexa Fluor 647 positive cells using a conjugated secondary. […] The binding profile for 1G9 is most similar to 10F8. Although the ratios of gH, gL and gO plasmid were 1:1:1 it is not certain how efficiently the trimer was assembled following transfection. […] To discern minute differences in antibody binding biolayer interferometry was used, immobilizing each of the purified monoclonal antibodies (50-0.016 μg/mL) onto anti-mouse IgG Fc capture (AMC) biosensors and exposing the sensors to recombinant pentamer (100 μg/mL).

gH monomer = molecular target: T1, gH monomer (Human cytomegalovirus, UniProt Q6SW67); assay: Binding to 293 Expi cells transfected with gH alone; conditions: 3 days post transfection
T1 construct: expressed in transfected cells; host or cells: 293 Expi (Expi293F) cells
Description: (§1) gH mutants were cloned into pcDNA 3.1 and co-transfected with gL (1:1 ratio, 6 μg plasmid total) with lipofectamine 2000 (Thermo Fisher, #11668019) into 293Expi cells (7.5×10^6). Cells were harvested 3 days post transfection and fixed before being incubated with α-gH antibodies (2 μg/mL) for 1 hr at RT. Cells were washed and then incubated in anti-mouse AF647 conjugated secondary (1:1000) in order to quantify binding. Transfection efficiency was determined using pMAX eGFP plasmid which was spiked in at 0.1 μg per well.
(§2) To examine this further, 293 Expi cells were transfected with wildtype gH, wildtype gL, cotransfected with gH and gL (gH+gL), transfected with a single plasmid expressing both gH and gL (gH/gL) or co-transfected a variety of gH mutants and gL. Three days post transfection the cells were harvested and stained with unlabeled primary at 0.5 μg/mL using the antibodies indicated. Transfection efficiency was determined by measuring GFP expression on day 3 and binding was determined by percent Alexa Fluor 647 positive cells using a conjugated secondary. […] The binding profile for 1G9 is most similar to 10F8. Although the ratios of gH, gL and gO plasmid were 1:1:1 it is not certain how efficiently the trimer was assembled following transfection. […]

gH/gL/gO trimer = molecular target: T2, gH/gL/gO trimer (Human cytomegalovirus, UniProt F5HCH8+Q6SW67, DEL177-177/E103D/E61Q/G77R); assay: Binding to 293 Expi cells transfected with gH/gL/gO; conditions: 3 days post transfection
T2 construct: expressed in transfected cells; host or cells: 293 Expi (Expi293F) cells
Description: as §1, §2

HCMV AD169R = assay: Neutralization by fully human versus chimeric antibody versions; type: cell-based, Human cytomegalovirus; conditions: human IgG1 Fc versus mouse Fc
Description: Increasing concentrations of monoclonal antibodies (0.016-50 μg/mL) were incubated with AD169R (MOI 0.2) to assess neutralizing capacity. Percent infection was quantified using GFP expression at 18 hpi and normalized based on infection with virus alone (no antibody). CMV hyperimmune globulin (CytoGam®) was used as a control (trace on the upper right in FIGS. 8A, 8B, 8C, and 8D). FIG. 8A. […] FIG. 8B. Fully human (hu, comprising human variable and human constant regions) and chimeric (ms, comprising human variable and murine constant regions) versions of 9A12. FIG. 8C. Fully human (hu, comprising human variable and human constant regions) and chimeric (ms, comprising human variable and murine constant regions) versions of 13G1. FIG. 8D. Fully human (hu, comprising human variable and human constant regions) and chimeric (ms, comprising human variable and murine constant regions) versions of 14E1.
For this, the mouse Fc region of these mAbs was replaced with the human IgG1 Fc region.

[2] = test system: CMV TB40/E infected fibroblasts; assay: SCID mouse gelfoam implant model of CMV proliferation; type: in vivo, SCID mice; conditions: fully human mAbs 4 or 18 mg/kg, ganciclovir 50 mg/kg; i.p. every three days; day ten; versus isotype control
Description: At day ten post-implantation, the cells were released from the gelfoam and DNA extracted from the cells was subjected to qPCR for the HCMV UL123 and β-actin genes. The relative CMV levels cells were determined from Ct values of qPCR analysis (in triplicate) from cells collected from three mice/treatment. Statistical tests were performed using ordinary one-way ANOVA with comparisons to isotype treated cells as a control and a Dunnett's post-test; **, p<0.01; ***, p<0.001; ****, p<0.0001.
The gelfoam was implanted subcutaneously in three mice per group. […] Treatments were administrated every three days for nine days. At day ten post-implant, the gelfoam was removed and cells were released from the gel foam by collagenase treatment. The total DNA was harvest from the cells, quantified, and subjected to qPCR for UL123 (CMV gene) and b-actin (housekeeping geen) using SYBR green to evaluate virus proliferation. The qPCR analysis was performed in triplicate from three animals to determine the Ct values for UL123 and b-actin to calculate the relative levels of CMV DNA from the gelfoam samples.

HCMV gB (U373-gB cells) = assay: Flow cytometry binding to U373-gB cells; set-up: species or system Human cytomegalovirus
HCMV BADrUL131 = assay: Dissemination / focus forming unit (FFU) assay in ARPE-19 cells; type: cell-based, Human cytomegalovirus
Description: ARPE-19 or NHDF cells were plates at 50,000 cells per well in a 24 well and infected the following day. TB40/E (MOI 0.01) and AD169RBAD^rUL131 (MOI 0.1 & 0.01) was incubated with either 10 μg/mL or 0.5 μg/mL of antibody one hour prior to addition to cells. Following a 2 hr incubation at 37° C., 5% CO2 the inoculum was removed, and cells were overlaid with 1% low melt temperature sea agarose overlay. The overlay was allowed to solidify at room temp and then 500 μL of media was added before cells were put back into the incubator. At 7 days post infection, the cells were scanned using the brightfield and GFP filters and then placed back into the tissue culture incubator until the assay was stopped by fixation and immunostaining on day 10 or 14 as indicated.
Next, a focus forming unit (FFU) assay was optimized to examine the antibodies ability to block viral replication and dissemination over multiple infection cycles. […] Once the assay was terminated at Day 10 or 14, the cells were fixed and performed immunostaining to quantify total cells by Hoechst or infection using IE1-1 as readout for infection. […] The number of FFUs was quantified per well, using 10,000 μm^2 as a cutoff for plaque area. […] Images were taken on day 7 post infection and the relative number of plaques per well was calculated compared to wells that received an irrelevant control antibody M2E10. […]

Molecule	neutralization of infection across all strains (HCMV)	kon [1] [M⁻¹ s⁻¹]	kdis [1] [s⁻¹]	binding to cells transfected with gH alone (gH monomer)	binding to cells transfected with gH/gL/gO (gH/gL/gO trimer)	IC50 / neutralizing capacity of fully human version compared to chimeric counterpart (HCMV AD169R)	CMV DNA levels (UL123 relative to β-actin, qPCR) [2]	binding to the surface of U373-gB cells (HCMV gB (U373-gB cells); live cells, surface)	binding to U373-gB cells fixed and permeabilized (HCMV gB (U373-gB cells); permeabilized cells)	rank of binding constant within the panel ([1]; recombinant pentamer)	limiting viral dissemination at low concentration (HCMV BADrUL131)
9A12: anti-HCMV gH/gL monoclonal antibody, fusion 2; VH SEQ ID NO:59, VL SEQ ID NO:60; chimeric and fully human IgG1 versions (antibody, V domains shown, IgG1 constant regions, anti-HCMV gH/gL monoclonal antibody, fusion 2; chimeric and fully human IgG1 versions) VH: EVQLVESGGVLVQPGGSLRLSCAASGFTFSSHEMNWVRQAPGKGLEWISYISSTGSTIYDADSVKGRFTISRDNAKNSLYLQMNSLRAEDTAVYYCARSSGWYRNYSYGMDVWGQGTTVTVSS VL: DIQMAQSPSSLSASVGDRVTITCRASQGIYNYLAWFQQKPGKAPKSLIYAASSLQTGVPSKFSGSGSGTDFTLTISNLQPEDFATYYCQQYNSFPRTFGQGTKVEIK	consistently neutralized infection	24800	8.6e-05	bound	bound	remained unchanged	limit CMV infection and proliferation				
13G1: anti-HCMV gH/gL monoclonal antibody, fusion 3; VH SEQ ID NO:38, VL SEQ ID NO:39; chimeric and fully human IgG1 versions (antibody, V domains shown, IgG1 constant regions, anti-HCMV gH/gL monoclonal antibody, fusion 3; chimeric and fully human IgG1 versions) VH: QVTLKESGPVLVKPTETLTLTCTVSGFSLYNARMGVTWIRQPPGKALEWLAHIFSNDERSYTSSLKNRLTISKDTSKSQVVLTMTNMDPVDTATYYCARIDYSNYIGNWFDPWGQGTLVTVSS VL: DIQMTQSPSSLSASVGDRVTITCRASQSISNYLNWYQQKPGKAPKLLIYAASSLQGGVPSRFSGSGSGTDFTLTISSLQPEDFTTYYCQQSYSTPFTFGGGTKVEIK	consistently neutralized infection	12900	6.51e-05			improved IC50 values	limit CMV infection and proliferation	bind non-specifically	does not significantly bind		
14E1 (antibody, V domains shown) VH: QVQLVQSGAEVKKPGASVKVSCKASGYTFTSYSISWVRQAPGQGLEWMGWINTYNGNTNYAQRVQARVTMTTDTSTSTAYMELRSLRSDDTAVYYCARDHGFFFDYWGQGNLVTVSS VL: DIQLTQSPSFLSASVGDRVTITCWASQGISSYLAWYQQKPGKAPKLLIYAASTLQSGVPSRFSGSGSGTEFTLTISSLQPEDFATYYCQQLNSYPYTFGQGTQLEIK		24400	0.00158			improved IC50 values				weakest	effective
